For eight molecules, EC50 and Kd results are on record in PMC2894786, “Fibronectin-binding protein B variation in Staphylococcus aureus” (BMC Microbiology, 2010).

One experiment concerns the target human fibrinogen (human) (UniProt P02671). The experiment in a line: ELISA; solid-phase binding: elastin (50 μg/ml), fibrinogen (10 μg/ml) or fibronectin (10 μg/ml) coated on microtitre wells; purified rFnBPB N23 in PBS added, 37°C for 2 hr; bound protein detected with anti-hexahistidine monoclonal antibody 7E8. (In general: An ELISA detects its analyte on a solid surface through an enzyme-linked reagent.)

For experiment [1], the target named is human aortic elastin (human) (UniProt P15502). The experiment is described as above.
Experiment [2] has as its target human fibronectin (human). The experiment is described as above.
Experiment [3] concerns the target human fibronectin (human). The experiment in a line: SPR; BIAcore X100; fibrinogen, elastin or fibronectin amine-coupled to CM5 chips; rN23 type I passed over at 0.15 μM to 10 μM in PBS; blank flow cell subtracted; equilibrium dissociation constants. (In SPR one partner is held on a chip, and binding of the other changes the refractive index at the surface.)
Experiment [4] concerns the target T1, human aortic elastin (human, UniProt P15502 27-786).
T1 construct: elastin from human aorta; Tissue elastin is a cross-linked material; The vendor named for the ELISA differs from that named for the SPR; source: bought: Elastin Products Company (ELISA); Enzyme Research Laboratories (SPR)
T1 sequence: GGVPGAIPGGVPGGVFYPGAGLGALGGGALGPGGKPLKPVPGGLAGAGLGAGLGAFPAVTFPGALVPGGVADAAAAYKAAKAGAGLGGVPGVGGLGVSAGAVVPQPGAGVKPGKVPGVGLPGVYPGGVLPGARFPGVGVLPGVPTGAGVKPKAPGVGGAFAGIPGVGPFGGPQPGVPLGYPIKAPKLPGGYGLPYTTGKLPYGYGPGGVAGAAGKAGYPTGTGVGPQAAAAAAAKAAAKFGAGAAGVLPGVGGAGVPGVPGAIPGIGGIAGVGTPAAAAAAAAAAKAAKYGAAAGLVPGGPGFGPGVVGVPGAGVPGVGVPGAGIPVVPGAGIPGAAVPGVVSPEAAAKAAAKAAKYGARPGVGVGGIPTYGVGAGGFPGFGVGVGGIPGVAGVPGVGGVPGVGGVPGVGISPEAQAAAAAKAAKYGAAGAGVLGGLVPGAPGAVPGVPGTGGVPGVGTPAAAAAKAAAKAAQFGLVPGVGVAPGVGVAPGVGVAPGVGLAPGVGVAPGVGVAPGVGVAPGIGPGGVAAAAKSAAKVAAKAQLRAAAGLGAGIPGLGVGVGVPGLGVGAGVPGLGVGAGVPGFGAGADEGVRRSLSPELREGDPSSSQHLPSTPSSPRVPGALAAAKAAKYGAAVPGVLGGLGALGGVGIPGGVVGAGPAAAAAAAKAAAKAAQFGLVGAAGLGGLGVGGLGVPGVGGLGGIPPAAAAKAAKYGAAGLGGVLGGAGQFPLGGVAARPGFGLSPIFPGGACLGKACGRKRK
Description: ELISA; solid-phase binding: elastin (50 μg/ml), fibrinogen (10 μg/ml) or fibronectin (10 μg/ml) coated on microtitre wells; purified rFnBPB N23 in PBS added, 37°C for 2 hr; bound protein detected with anti-hexahistidine monoclonal antibody 7E8. The note with it: both partners purified.

Experiment [5] concerns the target T2, human fibrinogen (human, UniProt P02671-2 20-644; P02675 31-491; P02679-2 27-437).
T2 construct: fibrinogen alpha chain, human; fibrinogen beta chain, human; fibrinogen gamma chain, human; source: bought: Calbiochem; copies: + +
T2 sequence 1: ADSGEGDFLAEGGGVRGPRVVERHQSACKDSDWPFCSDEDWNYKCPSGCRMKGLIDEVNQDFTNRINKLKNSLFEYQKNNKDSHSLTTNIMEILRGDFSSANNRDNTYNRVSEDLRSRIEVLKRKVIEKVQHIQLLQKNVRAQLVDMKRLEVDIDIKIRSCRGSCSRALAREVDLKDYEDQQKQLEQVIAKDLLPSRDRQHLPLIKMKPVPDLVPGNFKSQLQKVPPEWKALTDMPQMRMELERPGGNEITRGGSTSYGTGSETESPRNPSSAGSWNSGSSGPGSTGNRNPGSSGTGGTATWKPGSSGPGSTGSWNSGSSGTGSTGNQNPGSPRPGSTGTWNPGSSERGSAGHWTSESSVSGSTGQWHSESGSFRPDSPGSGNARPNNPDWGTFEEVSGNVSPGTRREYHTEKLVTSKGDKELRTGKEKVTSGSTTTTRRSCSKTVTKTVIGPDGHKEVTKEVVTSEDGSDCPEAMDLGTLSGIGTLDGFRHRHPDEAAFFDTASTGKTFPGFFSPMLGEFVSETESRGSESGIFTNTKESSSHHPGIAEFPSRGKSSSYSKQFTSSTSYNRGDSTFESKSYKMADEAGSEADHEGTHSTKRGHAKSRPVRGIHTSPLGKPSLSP
T2 sequence 2: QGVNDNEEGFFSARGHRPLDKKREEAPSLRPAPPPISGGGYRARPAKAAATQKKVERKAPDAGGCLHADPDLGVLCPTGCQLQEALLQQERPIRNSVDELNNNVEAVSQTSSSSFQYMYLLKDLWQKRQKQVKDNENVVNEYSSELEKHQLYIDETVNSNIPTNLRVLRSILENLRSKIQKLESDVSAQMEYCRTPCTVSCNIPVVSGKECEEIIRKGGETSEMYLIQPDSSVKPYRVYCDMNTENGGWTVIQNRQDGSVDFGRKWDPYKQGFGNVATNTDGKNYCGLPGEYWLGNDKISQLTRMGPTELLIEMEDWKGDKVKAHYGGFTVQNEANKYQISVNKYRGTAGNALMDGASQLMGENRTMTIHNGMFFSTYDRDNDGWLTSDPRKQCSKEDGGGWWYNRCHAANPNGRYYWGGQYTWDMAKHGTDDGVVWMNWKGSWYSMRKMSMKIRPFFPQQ
T2 sequence 3: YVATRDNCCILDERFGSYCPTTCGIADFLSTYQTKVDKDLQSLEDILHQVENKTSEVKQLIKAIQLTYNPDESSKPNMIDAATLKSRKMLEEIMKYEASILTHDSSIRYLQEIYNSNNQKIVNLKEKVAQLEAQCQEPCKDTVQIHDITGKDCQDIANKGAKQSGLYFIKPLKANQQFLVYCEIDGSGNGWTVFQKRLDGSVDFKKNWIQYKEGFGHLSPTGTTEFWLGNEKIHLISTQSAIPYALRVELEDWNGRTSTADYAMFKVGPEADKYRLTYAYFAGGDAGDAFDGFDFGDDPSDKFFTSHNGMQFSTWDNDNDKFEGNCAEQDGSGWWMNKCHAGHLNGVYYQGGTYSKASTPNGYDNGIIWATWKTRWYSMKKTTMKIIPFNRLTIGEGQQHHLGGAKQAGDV
Described as above. As to conditions: both partners purified.

For experiment [6], the target named is T1, human aortic elastin. The experiment in a line: SPR; BIAcore X100; fibrinogen, elastin or fibronectin amine-coupled to CM5 chips; rN23 type I passed over at 0.15 μM to 10 μM in PBS; blank flow cell subtracted; equilibrium dissociation constants. The note with it: both partners purified.
In experiment [7] the target is T2, human fibrinogen. Described as above. The note with it: both partners purified.

For orientation: EC50 means the concentration that produces a half-maximal response. One may read the Kd as the concentration at which binding is half-saturated. Higher therefore signals lower affinity.

Turning to “recombinant FnBPB N23 isotype V from S. aureus strain 2 (domain or fragment)”, the EC50 with human fibrinogen (human) was 500 nM; in experiment [1], 900 nM; in experiment [2], 1500 nM.
With “recombinant FnBPB N23 isotype VII from S. aureus strain 233 (domain or fragment)”, the EC50 in the experiment with human fibrinogen (human) turned out to be 500 nM; in experiment [1], 900 nM; in experiment [2], 1500 nM.
Taken in the same sequence, the figures for “recombinant FnBPB N23 isotype II from S. aureus strain N315 (domain or fragment)” were 500 nM, 900 nM and 1500 nM.
Taken in the same sequence, the figures for “recombinant FnBPB N23 isotype III from S. aureus strain MSSA476 (domain or fragment)” were 500 nM, 900 nM and 1500 nM.
As to “recombinant FnBPB N23 isotype VI from S. aureus strain 3077 (domain or fragment)”, the results for the EC50 (with human fibrinogen (human); in experiment [1]; in experiment [2]) were 500 nM, 900 nM and 1500 nM, respectively.
For “recombinant FnBPB N23 isotype I (residues 162-480) from S. aureus strain 8325-4 (from UniProt A0A0H2XKG3 162-480) (domain or fragment)”, in experiment [3], the Kd was 2500 nM. Moreover, the EC50 in experiment [2] was 1500 nM.
Regarding “recombinant FnBPB N23 isotype IV from S. aureus strain P1 (domain or fragment)”, the EC50 came out at 500 nM in the experiment with human fibrinogen (human), 900 nM in experiment [1] and 1500 nM in experiment [2].

B1: recombinant FnBPB N23 isotype I (residues 162-480) from S. aureus strain 8325-4 (domain or fragment)
chain: TGTDVTNKVEVEEGSEIVGHKQDTNVVNPHNAERVTLKYKWKFGEGIKAGDYFDFTLSDNVETHGISTLRKVPEIKSTDGQVMATGEIIGERKVRYTFKEYVQEKKDLTAELSLNLFIDPTTVTQKGNQNVEVKLGETTVSKIFNIQYLGGVRDNWGVTANGRIDTLNKVDGKFSHFAYMKPNNQSLSSVTVTGQVTKGNKPGVNNPTVKVYKHIGSDDLAESVYAKLDDVSKFEDVTDNMSLDFDTNGGYSLNFNNLDQSKNYVIKYEGYYDSNASNLEFQTHLFGYYNYYYTSNLTWKNGVAFYSNNAQGDGKDKLK
notes: cloned BamHI/SmaI into pQE30 with a 3' stop codon; also called rN23 isotype I; rN23 type I; source: E. coli TOPP 3, pQE30, purified (Ni2+ chelate chromatography); not shown: His6, N-terminal, kept
Turning to B1, the EC50 is roughly 900 nM with human aortic elastin [4] and roughly 500 nM with human fibrinogen [5]. The Kd is 3200 nM with human aortic elastin [6] and 2000 nM in the experiment with human fibrinogen [7].
